The record followed here is the RNAGym collection of RNA variant scans (doi:10.7554/elife.90254).

B1: LINE1-mini (parent)
chain: GGCAGAGCUCAACACAGCGUGGCAAAGUGGCUGUGGCUAGACUGCC

In the data set the parent is B1. Briefly: self-cleavage, relative activity (ratio to wild type); higher = more cleavage; in vitro, sequencing; the parent is a self-cleaving ribozyme.
On to GGCAGAGCUCAACACAGCGUAGCAAAGUGGGUGUGGCUAGACUGCC [G21A C31G], for which the self-cleavage stood at 0.13.

Regarding GGCAGAGCUCAACACAGCGUAGCAAAGUGGUUGUGGCUAGACUGCC [G21A C31U], the self-cleavage stood at 0.63.

In the case of GGCAGAGCUCAACACAGCGGGGCAAAGUGGCUGUAGCUAGACUGCC [U20G G35A], the self-cleavage came out at 0.06.

As to GGCAGAGCUCAACACAGCGGGGCAAAGUGGCUGUUGCUAGACUGCC [U20G G35U], the self-cleavage is 0.12.

As for GGCAGAGCUCAACACAGCGGGGCAAAGUGGCUGUCGCUAGACUGCC [U20G G35C], the self-cleavage stood at 0.11.

With GGCAGAGCUCAACACAGCGGGGCAAAGUCGCUGUGGCUAGACUGCC [U20G G29C], the self-cleavage amounted to 0.35.

For the variant GGCAGAGCUCAACACAGCGGGGCAAAGUUGCUGUGGCUAGACUGCC [U20G G29U], the self-cleavage worked out at 0.48.

Regarding GGCAGAGCUCAACACAGCGGGGCAAAGUAGCUGUGGCUAGACUGCC [U20G G29A], the self-cleavage was 1.02.

As to GGCAGAGCUCAACACAGCGGGGCAAAGUGACUGUGGCUAGACUGCC [U20G G30A], the self-cleavage came to 0.66.

On to GGCAGAGCUCAACACAGCGGGGCAAAGUGCCUGUGGCUAGACUGCC [U20G G30C], for which the self-cleavage stood at 0.3.

As to GGCAGAGCUCAACACAGCGGGGCAAAGUGUCUGUGGCUAGACUGCC [U20G G30U], the self-cleavage amounted to 0.47.

In the case of GGCAGAGCUCAACACAGCGGGGCUAAGUGGCUGUGGCUAGACUGCC [U20G A24U], the self-cleavage stood at 0.54.

Turning to GGCAGAGCUCAACACAGCGGGGCGAAGUGGCUGUGGCUAGACUGCC [U20G A24G], the self-cleavage was determined as 0.61.

In the case of GGCAGAGCUCAACACAGCGGGGCCAAGUGGCUGUGGCUAGACUGCC [U20G A24C], the self-cleavage is 0.28.

For GGCAGAGCUCAACACAGCGGUGCAAAGUGGCUGUGGCUAGACUGCC [U20G G21U], the self-cleavage is 0.97.

Turning to GGCAGAGCUCAACACAGCGGAGCAAAGUGGCUGUGGCUAGACUGCC [U20G G21A], the self-cleavage was determined as 0.69.

Regarding GGCAGAGCUCAACACAGCGGCGCAAAGUGGCUGUGGCUAGACUGCC [U20G G21C], the self-cleavage came out at 0.46.

In the case of GGCAGAGCUCAACACAGCGUAGCAAAGUGGCUGUGGCUAGAAUGCC [G21A C42A], the self-cleavage worked out at 0.54.

For GGCAGAGCUCAACACAGCGUAGCAAAGUGGCUGUGGCUAGAUUGCC [G21A C42U], the self-cleavage came out at 1.82.

In the case of GGCAGAGCUCAACACAGCGUAGCAAAGUGGCUGUGGCUAGAGUGCC [G21A C42G], the self-cleavage turned out to be 0.06.

As to GGCAGAGCUCAACACAGCGGGGCAAAGUGGCUGUGGCUAGGCUGCC [U20G A41G], the self-cleavage came to 0.19.

Turning to GGCAGAGCUCAACACAGCGGGGCAAAGUGGCUGUGGCUAGCCUGCC [U20G A41C], the self-cleavage amounted to 0.02.

For GGCAGAGCUCAACACAGCGGGGCAAAGUGGCUGUGGCUAGUCUGCC [U20G A41U], the self-cleavage was 0.42.

Take GGCAGAGCUCAACACAGCGGGGCAAAGUGGCUAUGGCUAGACUGCC [U20G G33A]: the self-cleavage amounted to 0.09.

Take GGCAGAGCUCAACACAGCGGGGCAAAGUGGCUCUGGCUAGACUGCC [U20G G33C]: the self-cleavage came to 0.06.

With GGCAGAGCUCAACACAGCGGGGCAAAGUGGCUUUGGCUAGACUGCC [U20G G33U], the self-cleavage amounted to 0.08.

GGCAGAGCUCAACACAGCGGGGCAAAGUGGCAGUGGCUAGACUGCC [U20G U32A]: the self-cleavage amounted to 0.07.

Consider GGCAGAGCUCAACACAGCGGGGCAAAGUGGCGGUGGCUAGACUGCC [U20G U32G], for which the self-cleavage amounted to 0.09.

Consider GGCAGAGCUCAACACAGCGGGGCAAAGUGGCCGUGGCUAGACUGCC [U20G U32C], for which the self-cleavage stood at 0.06.

For the variant GGCAGAGCUCAACACAGCGGGACAAAGUGGCUGUGGCUAGACUGCC [U20G G22A], the self-cleavage was determined as 0.55.

On to GGCAGAGCUCAACACAGCGGGUCAAAGUGGCUGUGGCUAGACUGCC [U20G G22U], for which the self-cleavage worked out at 0.51.

GGCAGAGCUCAACACAGCGGGCCAAAGUGGCUGUGGCUAGACUGCC [U20G G22C]: the self-cleavage came out at 0.41.

For the variant GGCAGAGCUCAACACAGCGGGGCAAAGUGGCUGUGGCUAGACUACC [U20G G44A], the self-cleavage was 0.25.

GGCAGAGCUCAACACAGCGGGGCAAAGUGGCUGUGGCUAGACUCCC [U20G G44C]: the self-cleavage was 0.26.

For the variant GGCAGAGCUCAACACAGCGGGGCAAAGUGGCUGUGGCUAGACUUCC [U20G G44U], the self-cleavage worked out at 0.23.

In the case of GGCAGAGCUCAACACAGCGUAGCAAAGUGGCUGUGGCUAGACUGAC [G21A C45A], the self-cleavage came out at 0.97.

As to GGCAGAGCUCAACACAGCGUAGCAAAGUGGCUGUGGCUAGACUGGC [G21A C45G], the self-cleavage is 0.26.

On to GGCAGAGCUCAACACAGCGUAGCAAAGUGGCUGUGGCUAGACUGUC [G21A C45U], for which the self-cleavage was 2.04.

In the case of GGCAGAGCUCAACACAGCGGGGCAAAGUGGCUGUGGCUAGACUGCA [U20G C46A], the self-cleavage amounted to 0.78.

As for GGCAGAGCUCAACACAGCGGGGCAAAGUGGCUGUGGCUAGACUGCU [U20G C46U], the self-cleavage amounted to 0.44.

In the case of GGCAGAGCUCAACACAGCGGGGCAAAGUGGCUGUGGCUAGACUGCG [U20G C46G], the self-cleavage is 0.45.

For the variant GGCAGAGCUCAACACAGCGUAGCAAAGUGGCUGUGGCUAGCCUGCC [G21A A41C], the self-cleavage is 0.12.

As for GGCAGAGCUCAACACAGCGUAGCAAAGUGGCUGUGGCUAGUCUGCC [G21A A41U], the self-cleavage was determined as 0.83.

With GGCAGAGCUCAACACAGCGUAGCAAAGUGGCUGUGGCUAGGCUGCC [G21A A41G], the self-cleavage came out at 0.44.

With GGCAGAGCUCAACACAGCGGGGCAAAGUGGCUGUGGCAAGACUGCC [U20G U38A], the self-cleavage came out at 0.2.

As to GGCAGAGCUCAACACAGCGGGGCAAAGUGGCUGUGGCCAGACUGCC [U20G U38C], the self-cleavage was 0.26.

Consider GGCAGAGCUCAACACAGCGGGGCAAAGUGGCUGUGGCGAGACUGCC [U20G U38G], for which the self-cleavage is 0.02.

Regarding GGCAGAGCUCAACACAGCGUAGUAAAGUGGCUGUGGCUAGACUGCC [G21A C23U], the self-cleavage was 1.02.

GGCAGAGCUCAACACAGCGUAGGAAAGUGGCUGUGGCUAGACUGCC [G21A C23G]: the self-cleavage is 0.78.

Regarding GGCAGAGCUCAACACAGCGUAGAAAAGUGGCUGUGGCUAGACUGCC [G21A C23A], the self-cleavage came out at 1.07.

As to GGCAGAGCUCAACACAGCGGGGCAAAGUGGAUGUGGCUAGACUGCC [U20G C31A], the self-cleavage turned out to be 0.07.

Turning to GGCAGAGCUCAACACAGCGGGGCAAAGUGGGUGUGGCUAGACUGCC [U20G C31G], the self-cleavage is 0.04.

GGCAGAGCUCAACACAGCGGGGCAAAGUGGUUGUGGCUAGACUGCC [U20G C31U]: the self-cleavage is 0.11.

Take GGCAGAGCUCAACACAGCGGGGCAAACUGGCUGUGGCUAGACUGCC [U20G G27C]: the self-cleavage came out at 0.38.

As to GGCAGAGCUCAACACAGCGGGGCAAAUUGGCUGUGGCUAGACUGCC [U20G G27U], the self-cleavage stood at 0.25.

Take GGCAGAGCUCAACACAGCGGGGCAAAAUGGCUGUGGCUAGACUGCC [U20G G27A]: the self-cleavage was found to be 0.72.
